This note sets out measurements from patent publication US8796201B2 (The Board of Trustees of the Leland Stanford Junior …, priority 2002, dated 2014).

A short description of series [1]: Double-blind crossover gluten challenge: 72-hour quantitative fecal fat test. It counts as in vivo, human (Celiac Sprue patients). The text has this:
It was first established that a low-dose, short-term (5-10 g/day for 14 days) gluten oral supplement induces fat and carbohydrate malabsorption when given to asymptomatic Celiac Sprue patients on an otherwise gluten free diet. This protocol was modified to examine the effect of gluten pre-treated with pepsin, trypsin and chymotrypsin (PTC-Gluten) as compared to PTC-Gluten additionally treated with PEP (PTC-Gluten+PEP). In this study, Celiac patients maintaining a gluten-free diet ingested a supplement of 5 g/day gluten as PTC-Gluten or PTC-Gluten+PEP in an orange-lemon juice vehicle for 14 days in a double-blind crossover manner. A 6-week washout interval between individual arms of the crossover trial allowed patients to recover completely from the effects, if any, of the test material in the first arm.
Subjects and protocols: This study was approved by the Institutional Review Board of the Palo Alto Medical Foundation in Palo Alto, Calif., and all participants in the study were counseled regarding risks and signed an informed consent document. 22 patients were recruited who were in symptomatic remission on a gluten-free diet. Two patients dropped out of the study, one near the end of the first stage and the other prior to the second stage. The 20 patients who completed the study included 7 men and […] aged 21 to 78 (mean age 49). The time since diagnosis for the 20 patients ranged from 3 months to 18 years (mean 6 years). Patients provided copies of their initial small-intestinal biopsy pathology report and laboratory reports documenting a history of at least one positive celiac antibody (gliadin, endomysial or transglutaminase) to verify a diagnosis of Celiac Sprue. They also completed an entry questionnaire inquiring about their medical history, adherence to the gluten-free diet, and current symptoms. The format of the study was a double-blinded crossover in which each patient consumed either a low daily dose of a gluten supplement (5 g; equivalent of one-half slice of bread) that was predigested with pepsin, trypsin and chymotrypsin alone (PTC-Gluten) or PTC-Gluten treated with prolyl endopeptidase (PTC-Gluten+PEP). The PEP in the latter orange juice mixture was completely inactivated through a heating process following proteolysis of the gliadin peptides. […]
Studied variables: During each stage of the study, patients completed a daily questionnaire inquiring about symptoms and their adherence to the gluten-free diet. […] The serum anti-gliadin IgA antibodies and anti-tissue transglutaminase IgA and IgG antibodies were measured by an enzyme linked immunosorbent assay (ELISA) kit (INOVA Diagnostics, Inc., San Diego, Calif.). […] Total serum IgA levels were determined by an Integra instrument (Roche) (normal <81 mg/dl). […]

Series [2] in a line: Double-blind crossover gluten challenge: daily symptom questionnaire. It counts as in vivo, human (Celiac Sprue patients). The settings on record: PEP Stage, 20 patients. From the text: Subjects and protocols: This study was approved by the Institutional Review Board of the Palo Alto Medical Foundation in Palo Alto, Calif., and all participants in the study were counseled regarding risks and signed an informed consent document. 22 patients were recruited who were in symptomatic remission on a gluten-free diet. Two patients dropped out of the study, one near the end of the first stage and the other prior to the second stage. The 20 patients who completed the study included 7 men and […] aged 21 to 78 (mean age 49). The time since diagnosis for the 20 patients ranged from 3 months to 18 years (mean 6 years). […] The serum anti-gliadin IgA antibodies and anti-tissue transglutaminase IgA and IgG antibodies were measured by an enzyme linked immunosorbent assay (ELISA) kit (INOVA Diagnostics, Inc., San Diego, Calif.). […] Total serum IgA levels were determined by an Integra instrument (Roche) (normal <81 mg/dl). […] The 25 g D-xylose 5-hour urine excretion test and the 72-hour quantitative fecal fat test were measured at baseline and on Day 15. […] For the 72 h quantitative fecal fat test, patients were instructed to consume a diet containing 80-100 g fat per day during the collection. The fecal fat excretion was determined by a gravimetric method. […]

Where [3] appears, read: All patients with full Fecal Fat data (N = 17).
The mark [4] stands for this setting: Subgroup with normal to Mild Steatorrhea (N = 8).

B1: PEP: prolyl endopeptidase; Examples 1-2: from Flavobacterium meningosepticum (US Biological); Example 11: source not stated (protein, UniProt P27028 21-705, looked up)
Prolyl endopeptidase: QNSNVLKYPETKKVSHTDTYFGTQVSDPYRWLEDDRAEDTKAWVQQEVKFTQDYLAQIPFRDQLKKQLMDIWNYEKISAPFKKGKYTYFSKNDGLQAQSVLYRKDAAGKTEVFLDPNKFSEKGTTSLASVSFNKKGTLVAYSISEGGSDWNKIIILDAETKKQLDETLLDVKFSGISWLGDEGFFYSSYDKPKEGSVLSGMTDKHKVYFHKLGTKQSQDELIIGGDKFPRRYIGAYVTDDQRYLVVSAANATNGNELYIKDLKNKTDFIPIITGFDSNVNVADTDGDTLYLFTDKDAPNKRLVKTTIQNPKAETWKDVIAETSEPLEINTGGGYFFATYMKDAIDQVKQYDKNGKLVRAIKLPGSGNASGFGGEKTEKDLYYSFTNYITPPTIFKYNVTTGNSEVYQKPKVKFNPENYVSEQVFYTSSDGTKIPMMISYKKGLKKDGKNPTILYSYGGFNISLQPAFSVVNAIWMENGGIYAVPNIRGGGEYGKKWHDAGTKMQKKNVFNDFIAAGEYLQKNGYTSKEYMALSGRSNGGLLVGATMTMRPDLAKVAFPGVGVLDMLRYNKFTAGAGWAYDYGTAEDSKEMFEYLKSYSPVHNVKAGTCYPSTMVITSDHDDRVVPAHSFKFGSELQAKQSCKNPILIRIETNAGHGAGRSTEQVVAENADLLSFALYEMGIKSLK
On to B1, for which the results for the “PEP Effective (patients / patients with positive gluten challenge), fecal fat” value in series [1] (setting [3]) and in series [1] (setting [4]) were 5/7 and 4/4, respectively. Moreover, the entries for the “PEP Effective, fecal fat” value in series [1] (setting [3]) and in series [1] (setting [4]) were 71% and 100%, respectively. In addition, the “average Total Stage Symptom Score (sum of the 14 daily symptom scores)” value in series [2] was 23 (range 4 to 82).
